{"source": "paper doi:10.1101/2020.09.30.318261", "molecular_target": "SARS-CoV prefusion stabilised spike ectodomain trimer (SARS-CoV) (UniProt P59594)", "experiment": "cryo-EM structure"}
{"substance": "SARS-CoV prefusion stabilised spike ectodomain trimer (from UniProt P59594 14-1160) (domain or fragment)", "values": [{"measurement": "stoichiometry N", "result": 3}]}
